From US20250290928A1, “METHOD, KIT AND DEVICE FOR DETECTING EXTRACELLULAR VESICLES” (priority 2022, published 2025)
*: point of attachment. 5FAM = O=C1OC2(c3ccc(O)cc3Oc3cc(O)ccc32)c2ccc(C(=O)*)cc21; TQ2 = quencher

Biological target: T1, MMP14 in the MDA-MB-231-derived extracellular vesicles (Homo sapiens, UniProt P50281)
T1 construct: in terms of intact MMP14 with a molecular weight of 70 kDa
Test: Digital detection of MDA-MB-231-derived extracellular vesicles through MMP14 activity in liquid droplets
Type: biochemical
Experimental: The concentration of the solution is 5 μg/mL.
Liquid droplets were prepared by a pumping method of an SPG emulsification membrane through use of the reaction solution for forming liquid droplets prepared in the foregoing. A dispersed phase and a continuous phase are shown below.
An SPG pumping connector (pore diameter: 10 μm, pore diameter: 5 μm, manufactured by SPG Technology Co., Ltd.) was used as the SPG emulsification membrane, and the number of times of pumping reciprocations was set to 10. Thus, liquid droplets each having a diameter of from about 1 μm to about 10 μm were obtained.
The emulsified liquid prepared in the foregoing were subjected to a reaction through incubation at 37° C. to promote the generation of fluorescence.
Next, the images acquired with an SPG pumping connector with a pore diameter of 10 μm were analyzed in the same manner as in Example 19. The above-mentioned fluorescence microscope images after 4 hours of reaction were subjected to predetermined image processing to provide a particle diameter distribution of the liquid droplets shown in FIG. 67, and obtain a histogram representing the number of liquid droplets each showing a fluorescence intensity included in each fraction of fluorescence intensity obtained by dividing fluorescence intensities into intervals of a constant value in each particle diameter range.
Further, when the concentration of the extracellular vesicles having MMP14 activity was calculated through use of the above-mentioned equation (1) from the total number of liquid droplets in each particle diameter range and the number of positive liquid droplets identified from the histogram, the concentration was able to be estimated as described below.

[1] = Example 32, 4 h, droplet diameter 3-4 μm
[2] = Example 32, 4 h, droplet diameter 4-5 μm
[3] = Example 32, 4 h, droplet diameter 5-6 μm
[4] = Example 32, 4 h, droplet diameter 6-7 μm
[5] = Example 32, 4 h, droplet diameter 7-8 μm
[6] = Example 32, 4 h, droplet diameter <3 μm
[7] = Example 32, 4 h, droplet diameter >8 μm

Substance: [5-FAM]GRIGFLRTAK(TQ2)[OH] (5FAM-GRIGFLRTAK(TQ2)-OH) [Custom #1]
- Extracellular vesicle concentration (Example 32): 1.9×10^9 /μg of protein
- Concentration (extracellular vesicles having MMP14 activity) [1]: 1.06e+10 mL⁻¹
- Expected value λ [1]: 0.217
- Number of positives [1]: 15
- Positive ratio [1]: 0.195
- Concentration (extracellular vesicles having MMP14 activity) [2]: 9.05e+09 mL⁻¹
- Expected value λ [2]: 0.416
- Number of positives [2]: 16
- Positive ratio [2]: 0.340
- Concentration (extracellular vesicles having MMP14 activity) [3]: 9.85e+09 mL⁻¹
- Expected value λ [3]: 0.816
- Number of positives [3]: 29
- Positive ratio [3]: 0.558
- Concentration (extracellular vesicles having MMP14 activity) [4]: 9.03e+09 mL⁻¹
- Expected value λ [4]: 1.293
- Number of positives [4]: 37
- Positive ratio [4]: 0.725
- Concentration (extracellular vesicles having MMP14 activity) [5]: 9.01e+09 mL⁻¹
- Expected value λ [5]: 1.910
- Number of positives [5]: 23
- Positive ratio [5]: 0.852
- Concentration (extracellular vesicles having MMP14 activity) [6]: 1.04e+10 mL⁻¹
- Expected value λ [6]: 0.047
- Positive ratio [6]: 0.046
- Concentration (extracellular vesicles having MMP14 activity) [7]: 8.68e+09 mL⁻¹
- Expected value λ [7]: 3.296
- Number of positives [7]: 26
- Positive ratio [7]: 0.963
- Number of positives (Example 32, SPG pore 10 μm, EV 5 μg/mL, reporter 5 μM, 37° C., 4 h, droplet diameter <3 μm): 8
- average of the extracellular vesicle concentrations (Example 32, all droplet diameter ranges, reaction solution 5.0 μg of protein/mL): 9.5e+09 mL⁻¹
